In US10189887B2, “Polypeptides and uses thereof for reducing CD95-mediated cell motility” (INSERM (INSTITUT NATIONAL DE LA SANTÉ ET DE LA RECHERCHE …, priority 2014, dated 2019):

Legend:
[1] = tested on: CD95-mediated Ca^2+ response; experiment: Calcium response to cl-CD95L in Jurkat cells (Fura2/FuraPE3 video imaging); format: cell-based; conditions: 100 ng/ml cl-CD95L
Protocol: (§1) Cells were loaded with Fura2-AM (1 μM) at resting temperature for 30 min in Hank's Balanced Salt Solution (HBSS). After washing with HBSS, the cells were incubated for 15 min in the absence of Fura2-AM to complete de-esterification of the dye. Cells were placed in a thermostated chamber (37° C.) of an inverted epifluorescence microscope (Olympus IX70) equipped with a ×40, UApo/340-1.15 W water-immersion objective (Olympus), and fluorescence micrograph images were captured at 510 nm and at 12-bit resolution by a fast-scan camera (CoolSNAP fx Monochrome, Photometrics). To minimize UV light exposure, 4×4 binning function was used. Fura2-AM was alternately excited at 340 and 380 nm, and ratios of the resulting images (excitations at 340 and 380 nm and emission filter at 520 nm) were produced at constant intervals (5 s or 10 s according to the stimulus). […] Fluorescent images were pseudocolored using the IMD display mode in MetaFluor and assembled without further manipulation in Photoshop (Adobe). Raw data were acquired with MetaFluor and graphed in Origin (OriginLab). [Ca^2+]i was calculated using the following equation: [Ca^2+]i=Kd(R−Rmin)/(R−Rmax)×Sf2/Sf1, where Kd is the Fura2-AM dissociation constant at the two excitation wavelengths (F340/F380); Rmin is the fluorescence ratio in the presence of minimal calcium, obtained by chelating Ca^2+ with 10 mM EGTA; Rmax is the fluorescence ratio in the presence of excess calcium, obtained by treating cells with 1 μM ionomycin; Sf2 is the fluorescence of the Ca^2+-free form; and Sf1 is the fluorescence of the Ca^2+-bound form of Fura2-AM at excitation wavelengths of 380 and 340 nm, respectively. In some experiments cells were placed in a Ca^2+-free medium consisting of the HBSS described above in which CaCl2 was omitted and 100 μM EGTA was added in order to chelate residual Ca^2+ ions. This medium was added to the cells just before recording to avoid leak of the intracellular calcium stores.
T cells were loaded with Fura-PE3-AM (1 μM) at room temperature for 30 min in Hank's Balanced Salt Solution (HBSS). After washing, the cells were incubated for 15 min in the absence of Fura-PE3-AM to complete de-esterification of the dye. Cells were placed in the temperature controlled chamber (37° C.) of an inverted epifluorescence microscope (Olympus IX70) equipped with an ×40 UApo/340-1.15 W water-immersion objective (Olympus), and fluorescence micrograph images were captured at 510 nm and 12-bit resolution by a fast-scan camera (CoolSNAP fx Monochrome, Photometrics). To minimize UV light exposure, a 4×4 binning function was used. Fura-PE3 was alternately excited at 340 and 380 nm, and the ratios of the resulting images (emission filter at 520 nm) were produced at constant intervals (10 seconds). The Fura-PE3 ratio (Fratio 340/380) images were analyzed offline with Universal Imaging software, including Metafluor and Metamorph. Fratio reflects the intracellular Ca^2+ concentration changes. Each experiment was repeated 3 times, and the average of more than 20 single-cell traces was analyzed.

[2] = tested on: CD95-mediated Ca^2+ response; experiment: Calcium response to cl-CD95L in activated PBL; format: cell-based, human; conditions: human PBLs pretreated 1 μM, 1 h (positive control); 100 ng/ml cl-CD95L
Protocol: as §1
All cells were purchased from ATCC (Molsheim Cedex, France). T leukemic cell lines CEM, H9 and Jurkat were cultured in RPMI supplemented with 8% heat-inactivated FCS (v/v) and 2 mM L-glutamine at 37° C. in a 5% CO2 incubator. CEM-IRC cell expressing a low amount of plasma membrane CD95 was described in (Beneteau et al., 2007; Beneteau et al., 2008). […]
T cells were loaded with Fura-PE3-AM (1 μM) at room temperature for 30 min in Hank's Balanced Salt Solution (HBSS). […] Cells were placed in the temperature controlled chamber (37° C.) of an inverted epifluorescence microscope (Olympus IX70) equipped with an ×40 UApo/340-1.15 W water-immersion objective (Olympus), and fluorescence micrograph images were captured at 510 nm and 12-bit resolution by a fast-scan camera (CoolSNAP fx Monochrome, Photometrics). […]

Th17 cells = experiment: Endothelial transmigration of CD4 T-cell subsets (Th17, Th1, Treg), Boyden chamber; format: cell-based, human
Protocol: Animal experiments were subject to ethical review by the University of Nottingham were appropriate and conducted using PPL 40/3412 in accordance with the UK Home Office guidance and under ASPA (1986). For the generation of murine T-cell subsets, spleens were removed from C57Bl/6 mice and single cell suspensions prepared. CD4^+CD62L^+ naïve cells were isolated using Miltenyi Biotec microbeads. Naïve human CD4^+ T-cells were prepared using the Miltenyi Biotec naïve CD4^+ T-cell isolation kit II, which are sorted produced a 99% pure population of CD4^+CD45RA^+ cells. Purified cells were cultured in complete IMDM media all with α-CD3 (1 μg/ml), α-CD28 (2 μg/ml), and as follows; Th1 cells IL-12 (10 ng/ml) with α-IL-4 (10 μg/ml), Th2 cells IL-4 (10 ng/ml) and α-IFN-γ (10 μg/ml), Th17 cells Il-6 (10 ng/ml), TGF-β1 (2 ng/ml), α-IFN-γ (10 μg/ml) with α-IL-4 (10 μg/ml), and Tregs IL-2 (10 ng/ml) TGF-β1 (5 ng/ml), α-IFN-γ (10 μg/ml) and α-IL-4 (10 μg/ml). Cells were converted to T-cell subsets over five days as outlined above. All cytokines were supplied by PeproTech (London, UK). Mouse CD3 (clone 2C11); human CD3 (UCHT1); mouse CD28 (37.51); human CD28 (CD28.2); mouse IL-4 (11B11); human IL-4 (MP4-25D2); mouse IFN-γ (XMG1.2); human IFN-γ B27 came from BD Pharmigen.
After hydration of the Boyden chamber membranes containing 3 μm pore size membranes (Millipore, Molsheim, France), activated T-lymphocytes (10^6) were added to the top chamber on a confluent monolayer of HUVEC in a low serum (1%)-containing medium. […] In experiments using human sera, 500 μl of serum from either healthy donors or SLE patients was added in the lower reservoir. Cells were cultured for 24 h at 37° C. in a 5% CO2 humidified incubator. Transmigrated cells were counted in the lower reservoir by flow cytometry using a standard of 2.5×10^4 fluorescent beads (Flow-count, Beckman Coulter).
Blocking antibodies were used against E-selectin and ICAM-1 in the CHEMICON® endothelial cell adhesion assay (Millipore). Briefly, after activation of the endothelial cell layer with TNF-α, anti-mouse Ig controls, anti-E-selectin or anti-ICAM-1 were added at final concentrations of 10 μg/ml. Thereafter calcein-AM-stained T-cell subsets were incubated for 24 hours and unbound cells are washed. Cells attached to the endothelium were assessed using fluorescence plate reader.

Th17 cell accumulation = experiment: In vivo administration of cl-CD95L: cell accumulation in peritoneal cavity and spleen; set-up: species or system C57BL/6 mice; conditions: 24 hours
Protocol: Female C57BL/6 mice (Harlan UK) aged between 8-10 weeks were placed in groups of 6 and administered IP. Twenty-four hours following injection, mice were sacrificed and periteonial cavities were washed with 5 ml of PBS/2% FCS, blood smears were prepared, and spleens were collected. Blood smears and cytospins of periteonal cells (PECs) were stained with Giemsa and differential counts performed. Single cell suspensions of spleens and PECs were prepared, cell counts performed, CD4+CD62− T-cells were isolated with Miltenyi microbeads and number of cells determined by trypan blue exclusion. For experiments where animals received TAT-mCID or control peptides, 800 μg (40 mg/kg) was injected IP 2 hrs prior to administration of cl-CD95L. All mouse experiments were performed under ethical approval from the University of Nottingham local animal ethics committee and adhering to UK Home Office guidelines under the Project License 40/3412.
Single cell suspensions of spleens and PECs were prepared as described above. RNA was extracted from CD4 T-cells using phenol/chloroform. cDNA was prepared using the Promega GO-Script Reverse Transcription Kit and used in Real-Time PCR. Briefly, cDNA samples were subject to Taqman assay performed on a Roche Lightcycler. Results are reported as expression levels were calculated using the Δct method relative to HPRT.

C1CCC[C@H]2CCCN3CC[C@@H](CCCCCC[C@@H]4CCCN5CC[C@@H](CC1)O[C@@H]45)O[C@@H]23 [Xestospongin C, reference compound]
calcium response to cl-CD95L ([1]; Jurkat cells pretreated 2 μM, 20 minutes): completely blocked the initial component of the calcium response
CD95-mediated Ca^2+ response [2]: abrogated the CD95-mediated Ca^2+ response

Ryanodine
calcium response to cl-CD95L ([1]; Jurkat cells pretreated 20 minutes with 10 μM Ryanodine, alone or with Xestospongin C): did not reduce the initial peak but blocked the plateau phase

B1: CD95-Fc: decoy receptor for CD95L (protein)
chain: QVTDINSKGLELRKTVTTVETQNLEGLHHDGQFCHKPCPPGERKARDCTVNGDEPDCVPCQEGKEYTDKAHFSSKCRRCRLCDEGHGLEVEINCTRTQNTKCRCKPNFFCNSTVCEHCDPCTKCEHGIIKECTLTSNTKCKEEGSRSN
modifications: left off: a dimerising Fc or GST
notes: decoy receptor for CD95L
Th17 cell migration induced by SLE sera (Th17 cells; pre-incubation of SLE sera with decoy receptor, increasing concentrations): prevented Th17 cell migration in a dose-dependent manner

B2: cl-CD95L: recombinant homotrimeric metalloprotease-cleaved CD95L from supernatant of transfected HEK 293 cells (protein)
chain: QIGHPSPPPEKKELRKVAHLTGKSNSRSMPLEWEDTYGIVLLSGVKYKKGGLVINETGLYFVYSKVYFRGQSCNNLPLSHKVYMRNSKYPQDLVMMEGKMMSYCTTGQMWARSSYLGAVFNLTSADHLYVNVSELSLVNFEESQTFFGLYKL
total cell counts from the PEC and spleen (Th17 cell accumulation; single IP dose cl-CD95L (200 ng) versus vehicle): significant increase in the number of lymphocytes
Th17 lineage markers (IL-17, IL-23R, CCR6) in recruited activated CD4+ T cells, Q-PCR (Th17 cell accumulation; single IP dose cl-CD95L (200 ng)): induced the recruitment of Th17 cells
transmigration of CD4 T-cell subsets (Th17 cells; Th1 and Th17 versus Th0 and Th2, cl-CD95L 200 ng/ml): more efficient to promote the transmigration of Th1 and Th17 lymphocytes
endothelial transmigration of Th17 T cells (Th17 cells; human Th17 cells, presence or absence of cl-CD95L): enhanced endothelial transmigration of Th17 T cells
endothelial transmigration of Treg cells (Th17 cells; human regulatory T-cells, presence or absence of cl-CD95L): failed to induce significant Treg transmigration
